Data on one substance can be found in PMC10803429.

For the assay, the target named is SpyTag-VP2 (N-terminal SpyTag chimera of the major structural protein VP2 of parvovirus B19) (not stated | parvovirus B19). Put plainly: SEC + other: light scattering (MALS, Zetasizer Ultra); different amounts of SpyTag-VP2 (2.5-60 mL of 0.142 mg/mL) loaded on a 5-mL HisTrap HP column; peak run on Sephacryl 300-HR in 2 M GdnHCl buffer; fractions of 18-28 nm pooled, BCA.

In the case of “SpyTag-VP2 (N-terminal SpyTag chimera of the major structural protein VP2 of parvovirus B19)”, the percent of the loaded protein recovered as VLPs turned out to be 95%.
